Laboratory results reported in PMC4389316, “C-terminal residues of skeletal muscle calsequestrin are essential for calcium binding and for skeletal ryanodine receptor inhibition” (Skeletal Muscle, 2015).
Residue numbers refer to the chain shown, from its start. Values belong to the molecule of their own block, whether it stands above or below them.

Key:
junctin = experiment: co-immunoprecipitation (CSQ1 IP, Western blot densitometry); details: 1 mM Ca2+; parent: est. 100; read off a plot
[1] = biological target: ryanodine receptor type 1 (RyR1), purified (rabbit (endogenous in skeletal muscle …, UniProt P11716 1-5037)); experiment: cell-based or functional assay
[2] = biological target: T1, skeletal triadin 95 kDa (trisk95) (rabbit (endogenous in skeletal muscle …, UniProt Q28820 1-706)); experiment: co-IP; purified CSQ1 construct coupled to anti-CSQ1/protein A/G agarose (Pierce kit), then exposed to purified trisk95 or junctin; 20 mM MOPS, 150 mM NaCl, 1 mM CaCl2, pH 7.4; CSQ1 to partner 2:1 by weight; Western blot; details: both partners purified
T1 construct: triadin, skeletal muscle 95 kDa isoform, isolated from SR vesicles of New Zealand White rabbit back and leg muscle; also called triadin skeletal muscle 95 kDa; source: purified from rabbit skeletal SR vesicles (SDS preparative gel electrophoresis)
T1 sequence (looked up): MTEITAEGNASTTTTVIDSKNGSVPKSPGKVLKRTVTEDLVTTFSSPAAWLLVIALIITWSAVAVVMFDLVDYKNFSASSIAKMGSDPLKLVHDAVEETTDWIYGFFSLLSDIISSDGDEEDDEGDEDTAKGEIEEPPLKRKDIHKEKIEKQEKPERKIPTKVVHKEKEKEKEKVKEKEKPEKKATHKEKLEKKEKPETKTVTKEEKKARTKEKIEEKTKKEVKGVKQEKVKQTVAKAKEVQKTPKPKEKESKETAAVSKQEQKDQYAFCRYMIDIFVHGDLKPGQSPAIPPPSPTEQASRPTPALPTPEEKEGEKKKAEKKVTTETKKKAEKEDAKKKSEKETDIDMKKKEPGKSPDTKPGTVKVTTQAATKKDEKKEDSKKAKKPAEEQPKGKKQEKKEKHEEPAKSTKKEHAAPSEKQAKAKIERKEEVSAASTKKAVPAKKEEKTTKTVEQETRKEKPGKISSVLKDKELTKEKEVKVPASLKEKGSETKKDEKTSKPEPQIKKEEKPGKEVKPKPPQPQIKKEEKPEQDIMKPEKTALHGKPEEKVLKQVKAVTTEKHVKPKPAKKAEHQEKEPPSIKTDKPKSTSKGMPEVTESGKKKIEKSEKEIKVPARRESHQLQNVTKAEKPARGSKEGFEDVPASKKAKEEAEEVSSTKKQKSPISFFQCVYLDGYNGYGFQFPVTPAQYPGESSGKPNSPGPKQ

ryanodine receptor type 1 (RyR1), purified (rabbit, sequence (P11716 whole entry): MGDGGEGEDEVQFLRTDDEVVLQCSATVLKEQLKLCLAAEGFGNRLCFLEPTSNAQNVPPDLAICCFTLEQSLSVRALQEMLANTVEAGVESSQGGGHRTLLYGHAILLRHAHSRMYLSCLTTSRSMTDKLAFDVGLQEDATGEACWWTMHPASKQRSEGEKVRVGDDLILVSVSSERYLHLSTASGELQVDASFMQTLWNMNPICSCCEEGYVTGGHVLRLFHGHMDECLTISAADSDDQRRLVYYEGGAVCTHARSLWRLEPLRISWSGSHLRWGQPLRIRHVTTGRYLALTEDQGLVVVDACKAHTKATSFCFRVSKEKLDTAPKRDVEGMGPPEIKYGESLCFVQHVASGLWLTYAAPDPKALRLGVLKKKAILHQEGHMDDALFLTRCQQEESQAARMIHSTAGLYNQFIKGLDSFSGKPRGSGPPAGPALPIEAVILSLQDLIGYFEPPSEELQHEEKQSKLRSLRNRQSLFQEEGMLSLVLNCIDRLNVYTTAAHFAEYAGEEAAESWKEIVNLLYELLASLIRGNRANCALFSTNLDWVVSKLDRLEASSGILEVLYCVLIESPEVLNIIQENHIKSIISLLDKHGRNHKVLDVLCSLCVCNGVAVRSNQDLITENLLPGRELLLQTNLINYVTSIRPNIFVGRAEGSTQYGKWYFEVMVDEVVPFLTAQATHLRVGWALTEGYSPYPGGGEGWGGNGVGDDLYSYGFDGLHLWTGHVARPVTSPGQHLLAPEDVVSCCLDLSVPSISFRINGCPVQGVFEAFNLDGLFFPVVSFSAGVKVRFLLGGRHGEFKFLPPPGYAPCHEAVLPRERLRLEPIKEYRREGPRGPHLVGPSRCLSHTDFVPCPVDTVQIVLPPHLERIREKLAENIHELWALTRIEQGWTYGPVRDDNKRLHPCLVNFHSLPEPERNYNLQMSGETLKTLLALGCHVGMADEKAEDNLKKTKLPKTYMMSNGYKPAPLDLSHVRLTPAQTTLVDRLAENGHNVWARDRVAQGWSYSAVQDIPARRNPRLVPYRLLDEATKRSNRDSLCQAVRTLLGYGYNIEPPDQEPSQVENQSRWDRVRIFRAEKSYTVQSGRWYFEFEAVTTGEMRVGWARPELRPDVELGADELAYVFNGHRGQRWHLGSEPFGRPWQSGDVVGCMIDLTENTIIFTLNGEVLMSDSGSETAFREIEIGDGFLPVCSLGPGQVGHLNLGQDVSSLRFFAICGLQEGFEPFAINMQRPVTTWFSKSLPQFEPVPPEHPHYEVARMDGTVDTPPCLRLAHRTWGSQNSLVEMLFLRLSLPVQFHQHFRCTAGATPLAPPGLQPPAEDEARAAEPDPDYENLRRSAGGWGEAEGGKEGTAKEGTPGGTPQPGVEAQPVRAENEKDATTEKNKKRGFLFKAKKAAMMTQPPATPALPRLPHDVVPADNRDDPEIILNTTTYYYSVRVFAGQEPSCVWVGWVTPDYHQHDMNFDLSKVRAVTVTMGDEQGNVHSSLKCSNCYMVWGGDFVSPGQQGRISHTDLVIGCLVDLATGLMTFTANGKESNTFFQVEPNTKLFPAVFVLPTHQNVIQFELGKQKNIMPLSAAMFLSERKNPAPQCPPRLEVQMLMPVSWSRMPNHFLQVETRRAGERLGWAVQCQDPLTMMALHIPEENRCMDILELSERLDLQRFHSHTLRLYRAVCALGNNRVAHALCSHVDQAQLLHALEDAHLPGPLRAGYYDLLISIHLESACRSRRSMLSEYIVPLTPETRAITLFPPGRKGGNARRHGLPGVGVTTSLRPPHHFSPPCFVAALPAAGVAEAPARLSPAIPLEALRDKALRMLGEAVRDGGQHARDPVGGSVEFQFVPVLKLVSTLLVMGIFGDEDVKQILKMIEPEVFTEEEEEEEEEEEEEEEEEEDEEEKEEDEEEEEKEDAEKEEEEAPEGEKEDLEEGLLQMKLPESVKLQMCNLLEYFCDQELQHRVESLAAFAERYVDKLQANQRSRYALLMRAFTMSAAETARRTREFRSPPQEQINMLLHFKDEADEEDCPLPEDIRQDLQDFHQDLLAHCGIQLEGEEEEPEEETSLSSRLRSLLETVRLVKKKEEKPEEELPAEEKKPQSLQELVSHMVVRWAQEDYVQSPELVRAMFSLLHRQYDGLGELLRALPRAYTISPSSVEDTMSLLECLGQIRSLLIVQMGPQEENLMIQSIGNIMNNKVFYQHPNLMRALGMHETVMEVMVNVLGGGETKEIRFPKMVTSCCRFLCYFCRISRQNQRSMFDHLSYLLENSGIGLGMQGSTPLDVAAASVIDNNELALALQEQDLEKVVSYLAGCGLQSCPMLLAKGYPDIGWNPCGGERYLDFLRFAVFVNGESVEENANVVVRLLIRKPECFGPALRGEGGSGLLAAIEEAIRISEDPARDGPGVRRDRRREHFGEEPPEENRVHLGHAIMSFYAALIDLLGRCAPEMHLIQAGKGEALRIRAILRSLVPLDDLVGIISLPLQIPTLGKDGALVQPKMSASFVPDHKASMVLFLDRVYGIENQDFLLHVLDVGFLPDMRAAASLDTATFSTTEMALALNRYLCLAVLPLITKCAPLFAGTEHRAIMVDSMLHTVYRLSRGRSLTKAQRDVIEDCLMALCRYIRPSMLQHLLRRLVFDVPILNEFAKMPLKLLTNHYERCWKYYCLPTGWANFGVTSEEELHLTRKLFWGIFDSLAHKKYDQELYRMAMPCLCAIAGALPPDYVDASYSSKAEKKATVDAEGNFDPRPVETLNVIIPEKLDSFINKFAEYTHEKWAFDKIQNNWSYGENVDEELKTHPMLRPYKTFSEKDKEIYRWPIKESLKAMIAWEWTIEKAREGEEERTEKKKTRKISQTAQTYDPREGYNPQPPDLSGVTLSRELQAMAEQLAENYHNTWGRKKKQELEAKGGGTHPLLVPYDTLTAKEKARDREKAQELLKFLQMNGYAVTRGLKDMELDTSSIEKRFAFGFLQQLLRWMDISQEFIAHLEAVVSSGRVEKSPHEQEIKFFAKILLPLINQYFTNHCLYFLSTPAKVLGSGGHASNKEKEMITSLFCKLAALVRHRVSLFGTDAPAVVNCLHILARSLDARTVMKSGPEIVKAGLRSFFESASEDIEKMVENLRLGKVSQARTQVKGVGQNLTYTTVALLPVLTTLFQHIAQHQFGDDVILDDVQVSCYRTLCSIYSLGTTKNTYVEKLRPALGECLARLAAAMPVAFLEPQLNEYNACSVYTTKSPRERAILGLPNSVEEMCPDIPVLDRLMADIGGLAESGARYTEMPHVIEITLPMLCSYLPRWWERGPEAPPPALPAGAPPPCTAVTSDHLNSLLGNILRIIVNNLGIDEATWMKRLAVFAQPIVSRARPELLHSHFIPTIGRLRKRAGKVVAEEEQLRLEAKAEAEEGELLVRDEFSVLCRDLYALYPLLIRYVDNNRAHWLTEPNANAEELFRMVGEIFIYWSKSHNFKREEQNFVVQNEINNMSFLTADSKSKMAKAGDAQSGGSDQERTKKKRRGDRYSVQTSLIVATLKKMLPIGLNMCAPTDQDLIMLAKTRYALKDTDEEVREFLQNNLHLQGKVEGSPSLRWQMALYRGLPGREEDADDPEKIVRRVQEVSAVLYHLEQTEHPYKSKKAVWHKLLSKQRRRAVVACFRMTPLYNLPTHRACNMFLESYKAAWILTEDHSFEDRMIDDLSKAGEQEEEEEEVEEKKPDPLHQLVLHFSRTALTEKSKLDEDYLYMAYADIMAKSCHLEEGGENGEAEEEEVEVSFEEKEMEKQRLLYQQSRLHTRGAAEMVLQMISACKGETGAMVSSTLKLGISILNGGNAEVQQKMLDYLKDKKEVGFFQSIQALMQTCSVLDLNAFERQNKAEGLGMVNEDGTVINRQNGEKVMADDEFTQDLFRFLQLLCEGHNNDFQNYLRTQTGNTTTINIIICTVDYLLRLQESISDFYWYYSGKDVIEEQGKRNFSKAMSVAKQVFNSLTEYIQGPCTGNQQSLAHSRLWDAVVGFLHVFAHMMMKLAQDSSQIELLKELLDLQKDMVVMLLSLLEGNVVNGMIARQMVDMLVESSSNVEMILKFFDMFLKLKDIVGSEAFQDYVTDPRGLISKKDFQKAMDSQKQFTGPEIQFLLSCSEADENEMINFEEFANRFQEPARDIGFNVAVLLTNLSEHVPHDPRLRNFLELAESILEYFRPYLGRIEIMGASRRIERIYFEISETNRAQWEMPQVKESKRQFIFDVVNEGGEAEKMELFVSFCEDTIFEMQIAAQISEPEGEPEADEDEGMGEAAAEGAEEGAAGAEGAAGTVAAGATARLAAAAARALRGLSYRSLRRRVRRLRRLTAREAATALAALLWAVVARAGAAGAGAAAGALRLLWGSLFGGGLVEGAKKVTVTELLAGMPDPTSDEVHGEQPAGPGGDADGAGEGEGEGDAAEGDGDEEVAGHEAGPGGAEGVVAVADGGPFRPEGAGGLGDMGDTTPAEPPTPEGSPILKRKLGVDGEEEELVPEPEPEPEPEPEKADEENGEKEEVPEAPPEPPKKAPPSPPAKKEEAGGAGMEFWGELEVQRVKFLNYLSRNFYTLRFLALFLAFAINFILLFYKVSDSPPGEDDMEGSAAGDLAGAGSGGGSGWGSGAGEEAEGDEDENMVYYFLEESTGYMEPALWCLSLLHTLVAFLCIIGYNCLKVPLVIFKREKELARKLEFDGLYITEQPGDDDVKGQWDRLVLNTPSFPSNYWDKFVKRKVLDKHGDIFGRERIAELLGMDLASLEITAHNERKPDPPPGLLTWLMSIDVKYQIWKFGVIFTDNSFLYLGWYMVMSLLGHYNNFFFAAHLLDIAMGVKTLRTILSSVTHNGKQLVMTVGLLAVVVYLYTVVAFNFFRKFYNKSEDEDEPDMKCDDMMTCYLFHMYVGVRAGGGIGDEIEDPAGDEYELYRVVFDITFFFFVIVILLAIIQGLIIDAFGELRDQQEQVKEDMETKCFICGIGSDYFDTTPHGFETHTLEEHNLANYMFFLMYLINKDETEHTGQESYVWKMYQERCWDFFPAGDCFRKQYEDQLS

Molecule: wild-type (WT) calsequestrin type 1 (CSQ1), rabbit (from UniProt P07221) D367A
percent of parent (% relative binding) (junctin): 110

Molecule: wild-type (WT) calsequestrin type 1 (CSQ1), rabbit (from UniProt P07221) D365A; D367A
percent of parent (% relative binding) (junctin): 110

B2: wild-type (WT) calsequestrin type 1 (CSQ1), rabbit (natural protein, UniProt P07221 29-395, looked up)
chain: EEGLDFPEYDGVDRVINVNAKNYKNVFKKYEVLALLYHEPPEDDKASQRQFEMEELILELAAQVLEDKGVGFGLVDSEKDAAVAKKLGLTEEDSIYVFKEDEVIEYDGEFSADTLVEFLLDVLEDPVELIEGERELQAFENIEDEIKLIGYFKNKDSEHYKAFKEAAEEFHPYIPFFATFDSKVAKKLTLKLNEIDFYEAFMEEPVTIPDKPNSEEEIVNFVEEHRRSTLRKLKPESMYETWEDDMDGIHIVAFAEEADPDGYEFLEILKSVAQDNTDNPDLSIIWIDPDDFPLLVPYWEKTFDIDLSAPQIGVVNVTDADSVWMEMDDEEDLPSAEELEDWLEDVLEGEINTEDDDDEDDDDDDDD
notes: GST was cleaved with Factor Xa for single channel and 45Ca studies; probably GST-CSQ1 on Glutathione Sepharose; the discussion calls WT 'full-length CSQ1', while the numbering (C-terminus = 367) is that of the mature protein; also called WT CSQ1; WT CSQ; source: rabbit CSQ1 cDNA in pGEX5x1, expressed as previously described [34], purified
binding result [2]: binds | activation of purified RyR1 in lipid bilayers by WT CSQ1 [1]: ~2.8 fold

Further lines, results first:

percent of parent (% relative binding) (junctin): 92
Molecule: wild-type (WT) calsequestrin type 1 (CSQ1), rabbit (from UniProt P07221) D363A; D365A; D367A

rise in activity (open probability) of purified RyR1 in lipid bilayers after trans addition of CSQ1∆C14 [1]: ~1.9 fold
B1: CSQ1_(∆C14) (rabbit CSQ1 lacking the whole C-terminal tail, residues 354-367) (domain or fragment, UniProt P07221 29-381, looked up)
chain: EEGLDFPEYDGVDRVINVNAKNYKNVFKKYEVLALLYHEPPEDDKASQRQFEMEELILELAAQVLEDKGVGFGLVDSEKDAAVAKKLGLTEEDSIYVFKEDEVIEYDGEFSADTLVEFLLDVLEDPVELIEGERELQAFENIEDEIKLIGYFKNKDSEHYKAFKEAAEEFHPYIPFFATFDSKVAKKLTLKLNEIDFYEAFMEEPVTIPDKPNSEEEIVNFVEEHRRSTLRKLKPESMYETWEDDMDGIHIVAFAEEADPDGYEFLEILKSVAQDNTDNPDLSIIWIDPDDFPLLVPYWEKTFDIDLSAPQIGVVNVTDADSVWMEMDDEEDLPSAEELEDWLEDVLEGEINT

binding result [2]: binds
B3: CSQ1DA3 (rabbit CSQ1 with three alternate C-terminal acidic residues changed to alanine) (natural protein, UniProt P07221 29-395, looked up)
chain: B2 chain with D363A, D365A, D367A
notes: GST state as for m1; also called CSQ1D∆3; source: rabbit CSQ1 cDNA in pGEX5x1, expressed as previously described [34], purified
